According to patent publication US20200347133A1 (INHIBRX, published 2020):
Where a chain is given by its changes, count along the chain named. Values belong to the binder of their own block, whether it stands above or below them.

Assays:
[1] = molecular target: T1, CD33M, full length human CD33 protein expressed on transfected cells (human, UniProt P20138 18-303); assay: flow cytometry on Molm-13 cells transfected with CD33 (CD33M per Table 3), anti-human IgG Alexa Fluor 647 secondary, median fluorescence
T1 construct: also called full length CD33
Description: (§1) Binding of sdAbs to human CD33 was assessed by flow cytometry. […] MOLM-13 cells were transiently transfected with a plasmid encoding a sequence comprising “CD33M” (SEQ ID NO: 112) or a plasmid encoding a sequence comprising a truncated version, “CD33m” (SEQ ID NO: 113). The sequence encoded by the CD33M plasmid includes the leader sequence, full extracellular domain, transmembrane domain, and cytoplasmic domain. The sequence encoded by the CD33m plasmid includes the leader sequence, the membrane proximal IgC2 domain, and the transmembrane domain. Untransfected HEK 293 cells were used as CD33-negative cells. Each cell type was plated at 30,000 cells/well in FACS buffer (PBS 1% BSA, 0.1% NaN₃ pH 7.4) on a 96-well round-bottom plate. The sdAbs were diluted in FACS buffer in a 3-fold, 11 point serial dilution. The sdAb dilutions were added to the plated cells, and assay plates were incubated for 30 minutes at 4° C. […] The cells were washed twice more, then bound antibody was detected by flow cytometry.
(§2) Flow cytometric analysis was performed on an Intellicyte iQue Plus and fluorescence was plotted as median fluorescence intensity. The apparent affinity (Kd, nM) was determined using one site binding non-linear regression in PRISM graph software.

[2] = molecular target: T1, CD33M, full length human CD33 protein …; assay: flow cytometry on cells transfected with CD33M; apparent Kd, one-site fit
Description: (§3) Binding of sdAbs to human CD33 was assessed by flow cytometry. […] MOLM-13 cells were transiently transfected with a plasmid encoding a sequence comprising “CD33M” (SEQ ID NO: 112) or a plasmid encoding a sequence comprising a truncated version, “CD33m” (SEQ ID NO: 113). The sequence encoded by the CD33M plasmid includes the leader sequence, full extracellular domain, transmembrane domain, and cytoplasmic domain. The sequence encoded by the CD33m plasmid includes the leader sequence, the membrane proximal IgC2 domain, and the transmembrane domain. Untransfected HEK 293 cells were used as CD33-negative cells. Each cell type was plated at 30,000 cells/well in FACS buffer (PBS 1% BSA, 0.1% NaN₃ pH 7.4) on a 96-well round-bottom plate. The sdAbs were diluted in FACS buffer in a 3-fold, 11 point serial dilution. The sdAb dilutions were added to the plated cells, and assay plates were incubated for 30 minutes at 4° C. After washing twice in 150 μL of FACS buffer, cells in each well were resuspended in 100 μL of 1:2000 Alexa Fluor 647-conjugated Anti-Human IgG secondary diluted in FACS buffer and incubated at 4° C. for 30 minutes. The cells were washed twice more, then bound antibody was detected by flow cytometry.
as §2

[3] = molecular target: T1, CD33M, full length human CD33 protein …; assay: flow cytometry on Molm-13 cells transfected with CD33 (CD33M per Table 3), fluorescent anti-human IgG secondary, axis Median BL-1H
[4] = molecular target: T2, CD33m, truncated human CD33 protein expressed on transfected cells (human, UniProt P20138 140-259); assay: flow cytometry on cells labelled CD33m-HEK-293, anti-human IgG Alexa Fluor 647 secondary, median fluorescence
T2 construct: leader and transmembrane domain are not in it; also called truncated CD33
Description: as §1, §2

[5] = molecular target: T1, CD33M, full length human CD33 protein …; assay: flow cytometry on cells labelled CD33M-HEK-293, anti-human IgG Alexa Fluor 647 secondary, median fluorescence
Description: Binding of sdAbs to human CD33 was assessed by flow cytometry. […] […] The sequence encoded by the CD33M plasmid includes the leader sequence, full extracellular domain, transmembrane domain, and cytoplasmic domain. The sequence encoded by the CD33m plasmid includes the leader sequence, the membrane proximal IgC2 domain, and the transmembrane domain. Untransfected HEK 293 cells were used as CD33-negative cells. Each cell type was plated at 30,000 cells/well in FACS buffer (PBS 1% BSA, 0.1% NaN₃ pH 7.4) on a 96-well round-bottom plate. The sdAbs were diluted in FACS buffer in a 3-fold, 11 point serial dilution. The sdAb dilutions were added to the plated cells, and assay plates were incubated for 30 minutes at 4° C. After washing twice in 150 μL of FACS buffer, cells in each well were resuspended in 100 μL of 1:2000 Alexa Fluor 647-conjugated Anti-Human IgG secondary diluted in FACS buffer and incubated at 4° C. for 30 minutes. The cells were washed twice more, then bound antibody was detected by flow cytometry.
as §2

[6] = molecular target: T2, CD33m, truncated human CD33 protein …; assay: flow cytometry on cells transfected with truncated CD33m; apparent Kd, one-site fit
Description: as §3, §2

[7] = molecular target: T2, CD33m, truncated human CD33 protein …; assay: flow cytometry on cells transfected with truncated CD33m; apparent Kd, one-site fit; CD33m isoform, not CD33M
Description: as §1, §2

T1 sequence (P20138 18-303): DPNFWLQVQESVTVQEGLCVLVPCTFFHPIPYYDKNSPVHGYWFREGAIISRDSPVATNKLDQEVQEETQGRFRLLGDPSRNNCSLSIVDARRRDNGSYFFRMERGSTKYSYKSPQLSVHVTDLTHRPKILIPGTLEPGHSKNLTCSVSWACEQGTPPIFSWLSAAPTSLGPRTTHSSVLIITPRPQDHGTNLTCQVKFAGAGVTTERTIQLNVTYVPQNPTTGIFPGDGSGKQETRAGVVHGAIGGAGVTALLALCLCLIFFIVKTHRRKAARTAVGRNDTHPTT
T2 sequence (P20138 140-259 limits assumed): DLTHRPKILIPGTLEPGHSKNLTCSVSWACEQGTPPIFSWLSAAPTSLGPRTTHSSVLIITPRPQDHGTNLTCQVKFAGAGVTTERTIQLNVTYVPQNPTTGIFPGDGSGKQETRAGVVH

B1: hz1C7v1 sdAb (hz1C7v1 VHH domain fused to human IgG1 xELL Fc region) (Fc fusion)
chain: EVQLVESGGGEVQPGGSLRLSCAASGRTFSGYIMGWFRQAPGKERELVARISGNNLSTEYAESVKGRFTISRDNAKNTLYLQMSSLRAEDTAVYYCAAEYDYSSGDFVYWGQGTLVTVDKTHTCPPCPAPGGPSVFLFPPKPKDTLMISRTPEVTCVVVDVSHEDPEVKFNWYVDGVEVHNAKTKPREEQYNSTYRVVSVLTVLHQDWLNGKEYKCKVSNKALPAPIEKTISKAKGQPREPQVYTLPPSRDELTKNQVSLTCLVKGFYPSDIAVEWESNGQPENNYKTTPPVLDSDGSFFLYSKLTVDKSRWQQGNVFSCSVMHEALHNHYTQKSLSLSPGK
notes: VHH-Fc; no linker stated; also called hz1C7v1-IgG1
EC50 (read off the curve) [1]: ~6 nM
Kd [2]: 6.25 nM

B4: A07 sdAb (A07 VHH domain fused to human IgG1 xELL Fc region) (Fc fusion)
chain: QVQLVQSGGGLVQAGGSLTLSCAASRSSGIDVMGWYRQAPGKERELVAEISGVGDTNYAASLADRFTVSRDNAKNTVYLQMKNLKPEDTAVYYCNAHSFLDLVGAWGQGTQVTVDKTHTCPPCPAPGGPSVFLFPPKPKDTLMISRTPEVTCVVVDVSHEDPEVKFNWYVDGVEVHNAKTKPREEQYNSTYRVVSVLTVLHQDWLNGKEYKCKVSNKALPAPIEKTISKAKGQPREPQVYTLPPSRDELTKNQVSLTCLVKGFYPSDIAVEWESNGQPENNYKTTPPVLDSDGSFFLYSKLTVDKSRWQQGNVFSCSVMHEALHNHYTQKSLSLSPGK
notes: VHH-Fc; no linker stated
Kd [2]: 53.5 nM
Kd [7]: 19.9 nM

B5: hzA07v4 sdAb (hzA07v4 VHH domain fused to human IgG1 xELL Fc region) (Fc fusion)
chain: B4 chain with Q1E, Q6E, L11E, A14P, T19R, K82S, N83S, K85R, P86A, Q111L
notes: VHH-Fc; no linker stated; also called hzA07v4-IgG1
EC50 (read off the curve) [4]: ~9 nM
Kd [6]: 11.8 nM
Kd [2]: 56.6 nM

The remaining binders from weak to strong by Kd [2], led by results:

EC50 (read off the curve) [4]: ~8 nM
EC50 (read off the curve) [5]: 10 to 100 nM
Kd [6]: 9.13 nM
Kd [2]: 14.8 nM
B3: hzF02v18 sdAb (hzF02v18 VHH domain fused to human IgG1 xELL Fc region) (Fc fusion)
chain: EVQLVESGGGEVQPGGSLRLSCAASGSISSYNVMGWYRQAPGKQRELVAQINAYGDTNYANAVVGRFTISRDNAKNTVYLQMSSLRAEDTAVYYCNGQRMLENYTYRDQSWGQGTLVTVDKTHTCPPCPAPGGPSVFLFPPKPKDTLMISRTPEVTCVVVDVSHEDPEVKFNWYVDGVEVHNAKTKPREEQYNSTYRVVSVLTVLHQDWLNGKEYKCKVSNKALPAPIEKTISKAKGQPREPQVYTLPPSRDELTKNQVSLTCLVKGFYPSDIAVEWESNGQPENNYKTTPPVLDSDGSFFLYSKLTVDKSRWQQGNVFSCSVMHEALHNHYTQKSLSLSPGK
notes: VHH-Fc; no linker stated; also called hzF02v18-IgG1

EC50 (read off the curve) [3]: ~5 nM
Kd [2]: 5.45 nM
B2: hz1C7v11 sdAb (hz1C7v11 VHH domain fused to human IgG1 xELL Fc region) (Fc fusion)
chain: B1 chain with S57A
notes: VHH-Fc; no linker stated; also called hz1C7v11-IgG1
